Experimental findings from article PMC3400432 (Developmental Cell, 2012) are described below.

To fix the notation:
B1: epsin1-Venus (natural protein, rat, UniProt O88339 1-575, looked up)
chain: MSTSSLRRQMKNIVHNYSEAEIKVREATSNDPWGPSSSLMSEIADLTYNVVAFSEIMSMIWKRLNDHGKNWRHVYKAMTLMEYLIKTGSERVSQQCKENMYAVQTLKDFQYVDRDGKDQGVNVREKAKQLVALLRDEDRLREERAHALKTKEKLAQTATASSAAVGSGPPPEAEQAWPQSSGEEELQLQLALAMSKEEADQPPSCGPEDDVQLQLALSLSREEHDKEERIRRGDDLRLQMAIEESKRETGGKEESSLMDLADVFTTPAPPQASDPWGGPASVPTAVPVAAAASDPWGAPAVPPAADPWGGAAPTPASGDPWRPAAPTGPSVDPWGGTPAPAAGEGPTSDPWGSADGGAPVSGPPSSDPWAPAPAFSDPWGGSPAKPSSNGTAVGGFDTEPDEFSDFDRLRTALPTSGSSTGELELLAGEVPARSPGAFDMSGVGGSLAESVGSPPPAATPTPTPPTRKTPESFLGPNAALVDLDSLVSRPGPTPPGAKASNPFLPSGAPATGPSVTNPFQPAPPATLTLNQLRLSPVPPVPGAPPTYISPLGGGPGLPPMMPPGPPAPNTNPFLL
B3: Delta-like 1 (Dll1) (ligand, UniProt P97677 18-714, looked up)
chain: QVWSSGVFELKLQEFVNKKGLLGNRNCCRGGSGPPCACRTFFRVCLKHYQASVSPEPPCTYGSAVTAVLGVDSFSLPDGAGIDPAFSNPIRFPFGFTWPGTFSLIIEALHTDSPDDLATENPERLISRLTTQRHLTVGEEWSQDLHSSGRTDLRYSYRFVCDEHYYGEGCSVFCRPRDDAFGHFTCGERGEKMCDPGWKGQYCTDPICLPGCDDQHGYCDKPGECKCRVGWQGRYCDECIRYPGCLHGTCQQPWQCNCQEGWGGLFCNQDLNYCTHHKPCRNGATCTNTGQGSYTCSCRPGYTGANCELEVDECAPSPCRNGGSCTDLEDSYSCTCPPGFYGKVCELSAMTCADGPCFNGGRCSDNPDGGYTCHCPAGFSGFNCEKKIDLCSSSPCSNGAKCVDLGNSYLCRCQTGFSGRYCEDNVDDCASSPCANGGTCRDSVNDFSCTCPPGYTGRNCSAPVSRCEHAPCHNGATCHQRGQRYMCECAQGYGGANCQFLLPEPPPDLIVAAQGGSFPWVAVCAGVVLVLLLLLGCAAVVVCVRLKLQKHQPPPDPCGGETETMNNLANCQREKDVSVSIIGATQIKNTNKKADFHGDHGADKSSFKARYPTVDYNLIRDLKGDEATVRDAHSKRDTKCQSQGSVGEEKSTSTLRGGEVPDRKRPESVYSTSKDTKYQSVYVLSAEKDECVIATEV

Common to all, as to test: co-IP
Assay [1] concerns the target B3.
Assay [2] addresses T1, Myc-epsin1 (UniProt O88339 1-575).
T1 sequence (looked up): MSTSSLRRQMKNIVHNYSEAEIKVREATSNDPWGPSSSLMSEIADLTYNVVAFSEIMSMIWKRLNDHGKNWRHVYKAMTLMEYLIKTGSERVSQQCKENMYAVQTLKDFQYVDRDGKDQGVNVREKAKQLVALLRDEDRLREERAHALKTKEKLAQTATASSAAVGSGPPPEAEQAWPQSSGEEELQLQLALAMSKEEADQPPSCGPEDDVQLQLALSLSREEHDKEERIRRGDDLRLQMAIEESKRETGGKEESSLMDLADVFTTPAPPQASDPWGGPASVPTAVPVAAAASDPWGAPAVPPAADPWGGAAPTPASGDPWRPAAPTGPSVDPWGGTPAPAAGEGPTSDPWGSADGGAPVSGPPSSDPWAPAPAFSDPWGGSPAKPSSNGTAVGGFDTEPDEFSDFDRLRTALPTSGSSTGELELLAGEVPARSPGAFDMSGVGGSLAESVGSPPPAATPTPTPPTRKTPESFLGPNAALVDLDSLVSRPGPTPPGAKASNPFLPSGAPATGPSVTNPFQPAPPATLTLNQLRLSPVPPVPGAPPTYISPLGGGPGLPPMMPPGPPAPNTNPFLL

Assay [3] addresses B1.

With B1, the “fold increase of the co-IP, cells on N1Fc- against Fc-plates” value in assay [1] was determined as 1.8 fold.

B2: Dll1 expressed in 293T cells (ligand, UniProt P97677 18-714, looked up)
chain: QVWSSGVFELKLQEFVNKKGLLGNRNCCRGGSGPPCACRTFFRVCLKHYQASVSPEPPCTYGSAVTAVLGVDSFSLPDGAGIDPAFSNPIRFPFGFTWPGTFSLIIEALHTDSPDDLATENPERLISRLTTQRHLTVGEEWSQDLHSSGRTDLRYSYRFVCDEHYYGEGCSVFCRPRDDAFGHFTCGERGEKMCDPGWKGQYCTDPICLPGCDDQHGYCDKPGECKCRVGWQGRYCDECIRYPGCLHGTCQQPWQCNCQEGWGGLFCNQDLNYCTHHKPCRNGATCTNTGQGSYTCSCRPGYTGANCELEVDECAPSPCRNGGSCTDLEDSYSCTCPPGFYGKVCELSAMTCADGPCFNGGRCSDNPDGGYTCHCPAGFSGFNCEKKIDLCSSSPCSNGAKCVDLGNSYLCRCQTGFSGRYCEDNVDDCASSPCANGGTCRDSVNDFSCTCPPGYTGRNCSAPVSRCEHAPCHNGATCHQRGQRYMCECAQGYGGANCQFLLPEPPPDLIVAAQGGSFPWVAVCAGVVLVLLLLLGCAAVVVCVRLKLQKHQPPPDPCGGETETMNNLANCQREKDVSVSIIGATQIKNTNKKADFHGDHGADKSSFKARYPTVDYNLIRDLKGDEATVRDAHSKRDTKCQSQGSVGEEKSTSTLRGGEVPDRKRPESVYSTSKDTKYQSVYVLSAEKDECVIATEV
With B2, the “fold decrease of the co-IP with PAR-1T560A-eGFP” value in assay [2] is 2 fold.
B3: the “fold increase of the co-IP, cells on N1Fc- against Fc-coated dishes” value in assay [3] came out at 1.9 fold.
